{"source": "patent US10543284B2", "about": "“Anti-c-Met antibody and anti-c-Met antibody-cytotoxic drug conjugate and pharmaceutical use thereof” (Suzhou Suncadia Biopharmaceuticals Co., Ltd., priority 2015, dated 2020)", "molecules": {"B1": {"name": "Ab-9: humanized anti c-Met antibody: heavy chain sequence of SEQ ID NO: 23 and light chain sequence of SEQ ID NO: 26 (antibody)", "heavy": "QVTLKESGPVLVKPTETLTLTCTVSGFSLPNYGVHWVRQPPGKALEWLAVIWSGGSTNYAAAFVSRLRISKDTSKSQVVFTMNNMDPVDTATYYCARNHDNPYNYAMDYWGQGTTVTVSSASTKGPSVFPLAPCSRSTSESTAALGCLVKDYFPEPVTVSWNSGALTSGVHTFPAVLQSSGLYSLSSVVTVPSSNFGTQTYTCNVDHKPSNTKVDKTVERKCCVECPPCPAPPVAGPSVFLFPPKPKDTLMISRTPEVTCVVVDVSHEDPEVQFNWYVDGVEVHNAKTKPREEQFNSTFRVVSVLTVVHQDWLNGKEYKCKVSNKGLPAPIEKTISKTKGQPREPQVYTLPPSREEMTKNQVSLTCLVKGFYPSDIAVEWESNGQPENNYKTTPPMLDSDGSFFLYSKLTVDKSRWQQGNVFSCSVMHEALHNHYTQKSLSLSPGK", "light": "DIVLTQSPASLAVSPGQRATITCRANKSVSTSTYNYLHWYQQKPGQPPKLLIYLASNLASGVPARFSGSGSGTDFTLTINPVEANDTANYYCQHSRDLPPTFGQGTKLEIKRTVAAPSVFIFPPSDEQLKSGTASVVCLLNNFYPREAKVQWKVDNALQSGNSQESVTEQDSKDSTYSLSSTLTLSKADYEKHKVYACEVTHQGLSSPVTKSFNRGEC", "modifications": "Ab-9 heavy chain; Ab-9 light chain"}}, "key": {"Caki-1 cells": {"system": "Caki-1 cells", "experiment": "Agonist test: stimulation of Caki-1 cell proliferation", "assay_type": "cell-based, human", "conditions": "highest concentration 20 μg/ml, 5 days", "procedure": "Caki-1 cells express the hepatocyte growth factor receptor c-Met, and HGF can bind c-Met to stimulate Caki-1 cell proliferation. Therefore, agonist activity of anti c-Met antibodies could be evaluated by the proliferation of Caki-1 cells stimulated by the humanized anti c-Met antibodies of the invention compared with the proliferation of Caki-1 cells stimulated by HGF.\nCaki-1 cells (Shanghai Branch of Chinese Academy of Science, TCHu135, P12) were added to a 96-well culture plate (costar, #3799) at 1000/well. The medium was McCoy's 5A (invitrogen, #16600)+10% FBS (GIBCO-10099141), and the condition was at 37° C. for 24 hours. Afterwards, cells were starved for 24 hours (The medium for cell starvation is McCoy's 5A and 0.5% FBS)."}, "H441 cells": {"system": "H441 cells", "experiment": "Agonist test: H441 cell migration", "assay_type": "cell-based, human", "conditions": "Antibody 20 μg/ml; migration affected by HGF (200 ng/ml) set as 100%", "from_the_text": "If anti c-Met antibodies have agonist activity, the migration ability of cells could be affected. The H441 cell line expressing c-Met is used in the invention to evaluate the ability of c-Met antibodies to affect cell migration. H441 cells (ATCC, Cat No.: HTB-174) were resuspended to 500,000 cells/ml in RPMI 1640 medium (GIBCO, Cat No.: 11835-030) which contains 10% (v/v) FBS (GIBCO, Cat No.: 10099-141) and penicillin-streptomycin (GIBCO, Cat No.: 15070-063). The resuspended H441 cells were added to a 12-well culture plate (Costar, Cat No. 3513) at 1 ml/well, and were cultured for 3 days at 37° C. in 5% CO2. Cells were washed twice with PBS, and RPMI 1640 medium containing 0.5% FBS was added, and the plate was cultured for 16 hours at 37° C. in 5% CO2. The bottom of each well was scratched with 5 ml tips, and the plate was washed once with medium containing low concentration of FBS, and 1 ml of RPMI 1640 medium containing a low concentration of serum was added. The plate was marked, photos were taken for randomly selected scratch areas under an inverted microscope at 4× magnification. This time was set as the starting point. […] The percentage of cell migration was measured as the migration distance relative to the starting point divided by the migration distance of the test group relative to the starting point, and then multiplied by 100."}, "[1]": {"experiment": "LC-MS analysis of deamination (biophysical stability)", "assay_type": "physicochemical", "conditions": "Proportion of deamination molecules; 0.66-1.0% is within background", "procedure": "To evaluate the biophysical stability of the antibodies of the invention, such as the presence of glycosylation and deamination and stability, LC-MS analysis was used.\nThe molecular weight of the heavy and light chains was detected by LC-MS to analyze glycosylation. Deamination was analyzed by LC-MS at 4° C. for a long time (at least 3 months), or at 40° C. for 21 days under an accelerated condition. Samples treated with different conditions were diluted to 2 mg/ml with pH7.2 Tris-HCl, and added into 10 mM TCEP and 6M urea (AMRESCO, Cat #0378)3, then the samples were incubated for 20 minutes at […]. IAA(Sigma-Aldrich, Cat # I1149) with a final concentration of 20 mM was added and was incubated for 15 minutes in darkness to protect the sulfhydryl group. The pH was adjusted using pH7.2 Tris-HCl, and protease (Sigma-Aldrich, Cat # T6567) was added at a proportion by weight of 10:1 (protein: enzyme). The samples were incubated at 37° C. for 25 minutes, and then formic acid with a final concentration of 0.1% (Fluca, Cat #94318) was added to terminate the reactions. Samples were centrifuged and analyzed by LC-MS.\nBiopharmaLynx was used to analyze the presence of deamination. […] The peak area was obtained by integration, and the percentages of deamination and oxidation were calculated."}}}
{"molecule": "B1", "values": [{"measurement": "Stimulation of proliferation of Caki-1", "setting": "Caki-1 cells", "result": "none"}, {"measurement": "H441 migration (%)", "setting": "H441 cells", "result": 53, "unit": "%"}, {"measurement": "Analysis of deamination 4° C., 3.5 months", "setting": "[1]", "result": 0.66, "unit": "%"}]}
